In patent publication US20260022150A1 (KEROS THERAPEUTICS, published 2026):

Target: T1, human GDNF family receptor alpha-1 (GFRα1) joined to an Fc domain at its C-terminus (human, UniProt P56159-2 25-445)
T1 construct: Bought from R&D Systems; also called GFRa1-hFc; human GFRα1 Fc chimera (R&D Systems); not shown: human Fc domain joined to the C-terminus of GFRα1
T1 sequence (looked up): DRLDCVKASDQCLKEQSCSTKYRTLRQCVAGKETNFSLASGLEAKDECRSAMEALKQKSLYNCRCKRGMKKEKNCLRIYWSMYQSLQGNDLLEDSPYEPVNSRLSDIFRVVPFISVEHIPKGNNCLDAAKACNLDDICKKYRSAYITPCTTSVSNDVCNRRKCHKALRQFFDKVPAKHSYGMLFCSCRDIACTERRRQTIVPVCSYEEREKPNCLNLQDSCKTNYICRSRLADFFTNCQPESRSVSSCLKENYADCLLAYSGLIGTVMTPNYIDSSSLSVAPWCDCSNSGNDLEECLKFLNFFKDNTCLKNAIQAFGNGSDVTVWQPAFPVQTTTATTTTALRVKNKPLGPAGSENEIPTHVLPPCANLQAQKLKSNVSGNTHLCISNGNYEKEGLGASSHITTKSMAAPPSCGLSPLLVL
Experiment: SPR; GFRα1-Fc chimera captured on CM5 chip by His-tag capture kit, analyte flowed over; apparent KD (KD,app)
Source text: Surface Plasmon Resonance (SPR) was used to determine the binding affinities of the GDNF fusion polypeptides to GFRα1. The GDNF fusion polypeptides in this example include fusion polypeptides 2-4 as described in Example 1, as well as Fc (T366W)-GGG-hGDNF₁₁₇₋₂₁₁ (SEQ ID NO: 37) (fusion polypeptide 6) which has an Fc domain having the amino acid substitution T366W (relative to the sequence of human IgG1) joined to the N-terminus of the GDNF variant having amino acids 117-211 of SEQ ID NO: 1 through a GGG linker. The SPR assay was configured to capture human GFRα1, GFRα2, and GFRα3 Fc chimeras (R&D Systems) onto a CM5 chip surface using His-tag capture kit (GE Healthcare) to appropriate levels for kinetic analysis. GDNF fusion polypeptides were flowed over the immobilized GFRs to measure the kinetics of GDNF fusion polypeptide and GFR association and dissociation. The binding of various concentrations of GDNF fusion polypeptides was measured in HBS-EP buffer (GE Healthcare) at a flow rate of 30 μL/min. Binding curves were fitted using Scrubber2 software to obtain apparent binding affinities and kinetic constants.

B1: R&D hGDNF (ligand, human, UniProt P39905 78-211, looked up)
chain: SPDKQMAVLPRRERNRQAAAANPENSRGKGRRGQRGKNRGCVLTAIHLNVTDLGLGYETKEELIFRYCSGSCDAAETTYDKILKNLSRNRRLVSDKVGQACCRPIAFDDDLSFLDDNLVYHILRKHSAKRCGCI
notes: also called human glial-derived neurotrophic factor
Kd: ~0.9 nM
